Laboratory results as given in patent publication US20240400708A1.

Columns and labels:
[1] = target: Feline FcRn complex (FcRn-alpha subunit and beta-microglobulin) (feline); assay: SPR (Biacore), feline FcRn captured on SA chip, IgG flowed over, pH 7.4
[2] = target: Feline FcRn complex (FcRn-alpha subunit and beta-microglobulin) (feline); assay: SPR (Biacore), feline FcRn captured on SA chip, IgG flowed over, pH 6

Row | Binder | Kd [1] [nM] | Kd [2] [nM]
1 | feline IgG1a Fc mutant S428L, S434H (antibody, part only; not given: Variable domains, not shown: another chain or arm of the molecule; small tags and cut ends) constant: ASTTAPSVFPLAPSCGTTSGATVALACLVLGYFPEPVTVSWNSGALTSGVHTFPAVLQASGLYSLSSMVTVPSSRWLSDTFTCNVAHPPSNTKVDKTVRKTDHPPGPKPCDCPKCPPPEMLGGPSIFIFPPKPKDTLSISRTPEVTCLVVDLGPDDSDVQITWFVDNTQVYTAKTSPREEQFNSTYRVVSVLPILHQDWLKGKEFKCKVNSKSLPSPIERTISKAKGQPHEPQVYVLPPAQEELSRNKVSVTCLIKSFHPPDIAVEWEITGQPEPENNYRTTPPQLDSDGTYFVYSKLSVDRSHWQRGNTYTCSVLHEALHHHHTQKSLTQSPGK | 43.9 | 2.58
2 | feline IgG1a Fc mutant S428L, S434F (antibody, part only; not given: Variable domains, not shown: another chain or arm of the molecule; small tags and cut ends) constant: ASTTAPSVFPLAPSCGTTSGATVALACLVLGYFPEPVTVSWNSGALTSGVHTFPAVLQASGLYSLSSMVTVPSSRWLSDTFTCNVAHPPSNTKVDKTVRKTDHPPGPKPCDCPKCPPPEMLGGPSIFIFPPKPKDTLSISRTPEVTCLVVDLGPDDSDVQITWFVDNTQVYTAKTSPREEQFNSTYRVVSVLPILHQDWLKGKEFKCKVNSKSLPSPIERTISKAKGQPHEPQVYVLPPAQEELSRNKVSVTCLIKSFHPPDIAVEWEITGQPEPENNYRTTPPQLDSDGTYFVYSKLSVDRSHWQRGNTYTCSVLHEALHFHHTQKSLTQSPGK | 46.4 | 1.39
3 | feline IgG1a Fc mutant S428Y, S434F (antibody, part only; not given: Variable domains, not shown: another chain or arm of the molecule; small tags and cut ends) constant: ASTTAPSVFPLAPSCGTTSGATVALACLVLGYFPEPVTVSWNSGALTSGVHTFPAVLQASGLYSLSSMVTVPSSRWLSDTFTCNVAHPPSNTKVDKTVRKTDHPPGPKPCDCPKCPPPEMLGGPSIFIFPPKPKDTLSISRTPEVTCLVVDLGPDDSDVQITWFVDNTQVYTAKTSPREEQFNSTYRVVSVLPILHQDWLKGKEFKCKVNSKSLPSPIERTISKAKGQPHEPQVYVLPPAQEELSRNKVSVTCLIKSFHPPDIAVEWEITGQPEPENNYRTTPPQLDSDGTYFVYSKLSVDRSHWQRGNTYTCSVYHEALHFHHTQKSLTQSPGK | 39.7 | 1.57
4 | feline IgG1a Fc mutant S428L, S434W (antibody, part only; not given: Variable domains, not shown: another chain or arm of the molecule; small tags and cut ends) constant: ASTTAPSVFPLAPSCGTTSGATVALACLVLGYFPEPVTVSWNSGALTSGVHTFPAVLQASGLYSLSSMVTVPSSRWLSDTFTCNVAHPPSNTKVDKTVRKTDHPPGPKPCDCPKCPPPEMLGGPSIFIFPPKPKDTLSISRTPEVTCLVVDLGPDDSDVQITWFVDNTQVYTAKTSPREEQFNSTYRVVSVLPILHQDWLKGKEFKCKVNSKSLPSPIERTISKAKGQPHEPQVYVLPPAQEELSRNKVSVTCLIKSFHPPDIAVEWEITGQPEPENNYRTTPPQLDSDGTYFVYSKLSVDRSHWQRGNTYTCSVLHEALHWHHTQKSLTQSPGK | 41.8 | 1.02
5 | feline IgG1a Fc mutant S428M, S252Y (antibody, part only; not given: Variable domains, not shown: another chain or arm of the molecule; small tags and cut ends) constant: ASTTAPSVFPLAPSCGTTSGATVALACLVLGYFPEPVTVSWNSGALTSGVHTFPAVLQASGLYSLSSMVTVPSSRWLSDTFTCNVAHPPSNTKVDKTVRKTDHPPGPKPCDCPKCPPPEMLGGPSIFIFPPKPKDTLYISRTPEVTCLVVDLGPDDSDVQITWFVDNTQVYTAKTSPREEQFNSTYRVVSVLPILHQDWLKGKEFKCKVNSKSLPSPIERTISKAKGQPHEPQVYVLPPAQEELSRNKVSVTCLIKSFHPPDIAVEWEITGQPEPENNYRTTPPQLDSDGTYFVYSKLSVDRSHWQRGNTYTCSVMHEALHSHHTQKSLTQSPGK | 124 | 5.12
6 | feline IgG1a Fc mutant Q311K, S428Y (antibody, part only; not given: Variable domains, not shown: another chain or arm of the molecule) constant: ASTTAPSVFPLAPSCGTTSGATVALACLVLGYFPEPVTVSWNSGALTSGVHTFPAVLQASGLYSLSSMVTVPSSRWLSDTFTCNVAHPPSNTKVDKTVRKTDHPPGPKPCDCPKCPPPEMLGGPSIFIFPPKPKDTLSISRTPEVTCLVVDLGPDDSDVQITWFVDNTQVYTAKTSPREEQFNSTYRVVSVLPILHKDWLKGKEFKCKVNSKSLPSPIERTISKAKGQPHEPQVYVLPPAQEELSRNKVSVTCLIKSFHPPDIAVEWEITGQPEPENNYRTTPPQLDSDGTYFVYSKLSVDRSHWQRGNTYTCSVYHEALHSHHTQKSLTQSPGK | 35.9 | 3.31
7 | feline IgG1a Fc mutant S428M, S434F (antibody, part only; not given: variable domains and light chain, not shown: another chain or arm of the molecule; small tags and cut ends) constant: ASTTAPSVFPLAPSCGTTSGATVALACLVLGYFPEPVTVSWNSGALTSGVHTFPAVLQASGLYSLSSMVTVPSSRWLSDTFTCNVAHPPSNTKVDKTVRKTDHPPGPKPCDCPKCPPPEMLGGPSIFIFPPKPKDTLSISRTPEVTCLVVDLGPDDSDVQITWFVDNTQVYTAKTSPREEQFNSTYRVVSVLPILHQDWLKGKEFKCKVNSKSLPSPIERTISKAKGQPHEPQVYVLPPAQEELSRNKVSVTCLIKSFHPPDIAVEWEITGQPEPENNYRTTPPQLDSDGTYFVYSKLSVDRSHWQRGNTYTCSVMHEALHFHHTQKSLTQSPGK | 38.2 | 1.21

Binders with a lower Kd [1], results first:

Row | Kd [1] [nM] | Kd [2] [nM] | Binder
8 | 25.3 | 0.937 | feline IgG1a Fc mutant S428M, S434W (antibody, part only; not given: Variable domains, not shown: another chain or arm of the molecule; small tags and cut ends) constant: ASTTAPSVFPLAPSCGTTSGATVALACLVLGYFPEPVTVSWNSGALTSGVHTFPAVLQASGLYSLSSMVTVPSSRWLSDTFTCNVAHPPSNTKVDKTVRKTDHPPGPKPCDCPKCPPPEMLGGPSIFIFPPKPKDTLSISRTPEVTCLVVDLGPDDSDVQITWFVDNTQVYTAKTSPREEQFNSTYRVVSVLPILHQDWLKGKEFKCKVNSKSLPSPIERTISKAKGQPHEPQVYVLPPAQEELSRNKVSVTCLIKSFHPPDIAVEWEITGQPEPENNYRTTPPQLDSDGTYFVYSKLSVDRSHWQRGNTYTCSVMHEALHWHHTQKSLTQSPGK
9 | 25.2 | 0.888 | feline IgG1a Fc mutant S428M, S434Y (antibody, part only; not given: Variable domains, not shown: another chain or arm of the molecule; small tags and cut ends) constant: ASTTAPSVFPLAPSCGTTSGATVALACLVLGYFPEPVTVSWNSGALTSGVHTFPAVLQASGLYSLSSMVTVPSSRWLSDTFTCNVAHPPSNTKVDKTVRKTDHPPGPKPCDCPKCPPPEMLGGPSIFIFPPKPKDTLSISRTPEVTCLVVDLGPDDSDVQITWFVDNTQVYTAKTSPREEQFNSTYRVVSVLPILHQDWLKGKEFKCKVNSKSLPSPIERTISKAKGQPHEPQVYVLPPAQEELSRNKVSVTCLIKSFHPPDIAVEWEITGQPEPENNYRTTPPQLDSDGTYFVYSKLSVDRSHWQRGNTYTCSVMHEALHYHHTQKSLTQSPGK
10 | 24.1 | 1.12 | feline IgG1a Fc mutant S428Y, S434Y (antibody, part only; not given: variable domains and light chain, not shown: another chain or arm of the molecule; small tags and cut ends) constant: ASTTAPSVFPLAPSCGTTSGATVALACLVLGYFPEPVTVSWNSGALTSGVHTFPAVLQASGLYSLSSMVTVPSSRWLSDTFTCNVAHPPSNTKVDKTVRKTDHPPGPKPCDCPKCPPPEMLGGPSIFIFPPKPKDTLSISRTPEVTCLVVDLGPDDSDVQITWFVDNTQVYTAKTSPREEQFNSTYRVVSVLPILHQDWLKGKEFKCKVNSKSLPSPIERTISKAKGQPHEPQVYVLPPAQEELSRNKVSVTCLIKSFHPPDIAVEWEITGQPEPENNYRTTPPQLDSDGTYFVYSKLSVDRSHWQRGNTYTCSVYHEALHYHHTQKSLTQSPGK
11 | 24.1 | 1.39 | feline IgG1a Fc mutant S428Y, S434W (antibody, part only; not given: variable domains and light chain, not shown: another chain or arm of the molecule; small tags and cut ends) constant: ASTTAPSVFPLAPSCGTTSGATVALACLVLGYFPEPVTVSWNSGALTSGVHTFPAVLQASGLYSLSSMVTVPSSRWLSDTFTCNVAHPPSNTKVDKTVRKTDHPPGPKPCDCPKCPPPEMLGGPSIFIFPPKPKDTLSISRTPEVTCLVVDLGPDDSDVQITWFVDNTQVYTAKTSPREEQFNSTYRVVSVLPILHQDWLKGKEFKCKVNSKSLPSPIERTISKAKGQPHEPQVYVLPPAQEELSRNKVSVTCLIKSFHPPDIAVEWEITGQPEPENNYRTTPPQLDSDGTYFVYSKLSVDRSHWQRGNTYTCSVYHEALHWHHTQKSLTQSPGK
